Laboratory results as given in patent US20130171217A1, “ENZYMATIC PERACID GENERATION FOR USE IN SKIN CARE PRODUCTS” (E I DU PONT DE NEMOURS AND COMPANY, priority 2010, published 2013).

Experiment: One-step procedure on hair tresses, hair color loss ΔE
Procedure: The hair tresses in these examples were cut from the stock medium brown hair swatches that were custom made by International Hair Importers (Glendale, N.Y.). Each hair tress was glued at one end, and cut at 5 mm width and 4 cm long (excluding the glued portion), with 100+/−20 mg net hair weight. For each test condition, triplicates of hair tresses were used. In the one-step procedure, each hair tress was placed in a clean plastic weighing tray (VWR, Cat. #12577-053), then 1 mL of the perhydrolase HC1121 solution in a buffer was applied to the hair tress, and was rubbed into the hair tress with an applicator. Then calculated amount of triacetin and 30% H2O2 were applied onto each hair tress and rubbed into the hair tress which gave 200 mM triacetin and 100 mM H2O2. The hair tress sat in this reaction mixture for 30 min, before being washed thoroughly with tap water followed by paper towel dry. This completed a 30 min treatment cycle. The treatment cycle was repeated 16 times. Hair tress became lighter-colored and weakened during the treatment. After final rinse and air-drying, tensile strength tests as described in Example 25 were conducted on each hair tress to quantify hair weakening. In addition, L*, a*, b* color measurements were taken for each hair sample to quantify hair color loss, and L*, a*, b* color measurements were also taken for untreated hair as a reference for ΔE color difference calculations. ΔE was calculated in the standard way as ΔE=((L*−L*ref)^2+(a*−a*ref)^2+(b*−b*ref)^2)^0.5. […] At pH 6, when 30 μg/mL HC1121 was used which gave 0.3 μg/mg hair E/H ratio, the tensile strength of treated hair tress reduced to 1.9 N/mg hair, approaching 1.5 N/mg hair, the benchmark strength of hair treated with NAIR® cream for 5 min. At pH 7, when 30 μg/mL HC1121 was used, the tensile strength of treated hair tress was 0.3 N/mg hair, much less than the 1.5 N/mg hair benchmark. Therefore, proper concentration of enzyme at proper pH could weaken hair effectively. The measured hair color loss for treated hair tresses correlated well with the weakening of hair: the greater hair weakening, the greater hair color loss.
Hair tresses were treated using the same procedure as described in Example 40, except that SLES (sodium laurel ether sulfate, a common soap ingredient) wash step was added before tap water rinse step each cycle to imitate daily shower in real life, where 1 mL 1% SLES (“RHODAPEX ES 2K” by Rhodia Inc., Cranbury, N.J.) was transferred onto hair tress and the hair tress was rubbed with gloved hand on the palm for 30 seconds. The treatment parameters for this example (enzyme concentration, pH and buffer concentration, and treatment cycle time) were shown in Table 34. For the 24 hr treatment cycle, the hair tress sat in the mixture for 1 hr before being taken out to a dry dish. The hair tress sat dry for 23 hr before being washed with 1 mL 1% SLES followed by tap water rinse and paper towel dry. For the 30 min treatment cycles, the treatment cycle was repeated 16 times. […] After final rinse and air-drying for each hair tress, tensile strength test and color measurement as described in Example 40 were conducted on each hair tress to quantify hair weakening and hair color loss. […] Hair tensile strength ranged from 0.3 to 0.8 N/mg hair, much less than the 1.5 N/mg hair tensile strength benchmark. Stronger hair weakening occurred at higher buffer concentration and longer treatment time. […] Therefore, it was anticipated that even lower enzyme concentration could be used to reach benchmark hair weakening at slightly higher pH (pH 6.6 compared to pH 6 in Example 40), higher buffer concentration and longer treatment time.
Hair tresses were treated using the same procedure for 24 hr treatment cycles as described in Example 41 using 10 μg/mL HC1121 at pH 6.6 and substrates at various concentrations. […]

B1: C277S-HC263: C277S variant of Thermotoga maritima perhydrolase fused via a flexible linker to hair-binding domain HC263 (protein)
chain: MAFFDLPLEELKKYRPERYEEKDFDEFWEETLAESEKFPLDPVFERMESHLKTVEAYDVTFSGYRGQRIKGWLLVPKLEEEKLPCVVQYIGYNGGRGFPHDWLFWPSMGYICFVMDTRGQGSGWLKGDTPDYPEGPVDPQYPGFMTRGILDPRTYYYRRVFTDAVRAVEAAASFPQVDQERIVIAGGSQGGGIALAVSALSKKAKALLCDVPFLCHFRRAVQLVDTHPYAEITNFLKTHRDKEEIVFRTLSYFDGVNFAARAKIPALFSVGLMDNISPPSTVFAAYNYYAGPKEIRIYPYNNHEGGGSFQAVEQVKFLKKLFEKGGPGSGGAGSPGSAGGPGSPSAQSQLPDKHSGLHERAPQRYGPEPEPEPEPIPEPPKEAPVVIEKPKPKPKPKPKPPAHDHKNQKETHQRHAAGSGGGGSPHHHHHH
10 μg/mL HC1121, pH 6.6, 50 mM phosphate, 200 mM TA/100 mM H2O2, 24 hr/cycle, 8 cycles
  Hair color loss avg ΔE: 13.8
10 μg/mL HC1121, pH 6.6, 50 mM phosphate, 200 mM TA/200 mM H2O2, 24 hr/cycle, 8 cycles
  Hair color loss avg ΔE: 16.7
10 μg/mL HC1121, pH 6.6, 50 mM phosphate, 200 mM TA/300 mM H2O2, 24 hr/cycle, 8 cycles
  Hair color loss avg ΔE: 20.1
10 μg/mL HC1121, pH 6.6, 50 mM phosphate, 200 mM TA/500 mM H2O2, 24 hr/cycle, 8 cycles
  Hair color loss avg ΔE: 21.8
10 μg/mL HC1121, pH 6.6, 50 mM phosphate, 500 mM TA/500 mM H2O2, 24 hr/cycle, 8 cycles
  Hair color loss avg ΔE: 22.3
one-step, 5 μg/mL enzyme, pH 6, 30 min × 16
  Hair color loss avg ΔE: 5.2
one-step, 15 μg/mL enzyme, pH 6, 30 min × 16
  Hair color loss avg ΔE: 6.8
one-step, 30 μg/mL enzyme, pH 6, 30 min × 16
  Hair color loss avg ΔE: 8.7
one-step, 30 μg/mL enzyme, pH 7, 30 min × 16
  Hair color loss avg ΔE: 16.6
one-step, pH 6.6, 50 mM buffer, 30 min/cycle X 16 cycles, SLES wash each cycle
  Hair color loss avg ΔE: 17.7
one-step, pH 6.6, 50 mM buffer, 24 hr/cycle X 7 cycles, SLES wash each cycle
  Hair color loss avg ΔE: 15.6
one-step, pH 6.6, 100 mM buffer, 30 min/cycle X 16 cycles, SLES wash each cycle
  Hair color loss avg ΔE: 24.2
